± gives the standard error. For some assays here: This sample holds only a part of the variants without activity.

First the molecules themselves.
B1: glmS ribozyme (parent)
chain: AUAAAAGCGCCAGAACUACAGAAAUGUAGUUGACGAGGAGGAGGUUUAUCGAAUUUUCGGCGGAUGCCUCCAAA

What all share (details): with glucosamine-6-phosphate
Data set [1] covers variants of B1. The data set is described as follows: kcat; higher = faster cleavage; RNA array. In a few lines:
(§1)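 E. coli RNA polymerase transcribed barcoded ribozyme variants in situ on sequenced MiSeq chips, which were tracked via a hybridised Cy3 probe at 37 °C. Tiles were imaged over ~14 h after glucosamine-6-phosphate (40 μM to 10 mM) in HEPES/KCl/Mg(OAc)2 buffer was flowed in. Normalised per-tile medians were fit to one- or two-exponential decays for kobs, and kcat and KM came from weighted Michaelis–Menten fits.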

Variants of B1 are the subject of data set [2]. The data set can be described thus: KM; higher = weaker cofactor use; RNA array. Put shortly: as §1
Variants of B1 are the subject of data set [3]. The data set can be described thus: self-cleavage kobs at 160 uM GlcN6P; higher = faster cleavage; RNA array. In a few lines: as §1
The variants in data set [4] derive from B1. The data set is described as follows: self-cleavage kobs at 640 uM GlcN6P; higher = faster cleavage; RNA array. Put shortly:
as §1

Data set [5] covers variants of B1. The data set can be described thus: self-cleavage kobs at 2500 uM GlcN6P; higher = faster cleavage; RNA array. Put shortly:
as §1

In data set [6] the parent is B1. The data set can be described thus: self-cleavage kobs at 10000 uM GlcN6P; higher = faster cleavage; RNA array. Put shortly: as §1
Variants of B1 are the subject of data set [7]. The data set is described as follows: self-cleavage kobs at 40 uM GlcN6P; higher = faster cleavage; RNA array. Put shortly: as §1

Consider G13A C70U, for which the kcat (in general, the number of substrate molecules converted per active site and unit of time at saturation) in the data set with glucosamine-6-phosphate [1] was 0.000795 ± 0.00019 s⁻¹. The KM (commonly the concentration of substrate that gives half-maximal velocity) with glucosamine-6-phosphate [2] came out at 2410 ± 870 µM. For the same variant, the “self-cleavage kobs at 160 uM GlcN6P” value with glucosamine-6-phosphate [3] is 7.83e-05 ± 1.4e-05 s⁻¹. In addition, the “self-cleavage kobs at 640 uM GlcN6P” value in the data set with glucosamine-6-phosphate [4] came to 0.000154 ± 1.7e-05 s⁻¹. In addition, in the data set with glucosamine-6-phosphate [5], the “self-cleavage kobs at 2500 uM GlcN6P” value was determined as 0.000388 ± 6.1e-05 s⁻¹. Moreover, in the data set with glucosamine-6-phosphate [6], the “self-cleavage kobs at 10000 uM GlcN6P” value was 0.000676 ± 9.5e-05 s⁻¹.

Turning to A48G U65G, the kcat with glucosamine-6-phosphate [1] worked out at 8.76e-05 ± 3.5e-05 s⁻¹. Also, the “self-cleavage kobs at 40 uM GlcN6P” value with glucosamine-6-phosphate [7] was less than 1e-05 s⁻¹. The “self-cleavage kobs at 160 uM GlcN6P” value in the data set with glucosamine-6-phosphate [3] is less than 1e-05 s⁻¹. Moreover, the “self-cleavage kobs at 10000 uM GlcN6P” value with glucosamine-6-phosphate [6] was found to be 3.81e-05 ± 1.3e-05 s⁻¹.

Regarding G43U U55A, in the data set with glucosamine-6-phosphate [1], the kcat is 2.33e-05 ± 3.8e-07 s⁻¹. Also, in the data set with glucosamine-6-phosphate [2], the Michaelis-Menten constant (KM) is 1170 ± 67 µM. Also, the “self-cleavage kobs at 160 uM GlcN6P” value with glucosamine-6-phosphate [3] was less than 1e-05 s⁻¹.

For the variant G59U U69G, the kcat with glucosamine-6-phosphate [1] came to 2.94e-05 ± 8.4e-06 s⁻¹.

G41C U46A: the kcat with glucosamine-6-phosphate [1] came out at 0.00012 ± 1.2e-05 s⁻¹. For the same variant, the KM with glucosamine-6-phosphate [2] was 3110 ± 830 µM. Moreover, the “self-cleavage kobs at 2500 uM GlcN6P” value with glucosamine-6-phosphate [5] worked out at 5.8e-05 ± 1.3e-05 s⁻¹. Also, the “self-cleavage kobs at 10000 uM GlcN6P” value with glucosamine-6-phosphate [6] came to 9.03e-05 ± 1.3e-05 s⁻¹.

Take G63A C71A: in the data set with glucosamine-6-phosphate [1], the kcat was less than 1e-05 s⁻¹.

As to G29A U56C, the kcat in the data set with glucosamine-6-phosphate [1] came out at 0.000719 ± 0.00026 s⁻¹. The “self-cleavage kobs at 160 uM GlcN6P” value with glucosamine-6-phosphate [3] is 3.68e-05 ± 1.1e-05 s⁻¹. Besides, the “self-cleavage kobs at 640 uM GlcN6P” value with glucosamine-6-phosphate [4] came to 0.000156 ± 2.2e-05 s⁻¹. The “self-cleavage kobs at 2500 uM GlcN6P” value with glucosamine-6-phosphate [5] came out at 0.000226 ± 3.3e-05 s⁻¹. Further, the “self-cleavage kobs at 10000 uM GlcN6P” value with glucosamine-6-phosphate [6] was 0.000619 ± 6.7e-05 s⁻¹.

As to G44A U55G, in the data set with glucosamine-6-phosphate [1], the kcat worked out at 0.000367 ± 0.00015 s⁻¹. Besides, the “self-cleavage kobs at 640 uM GlcN6P” value with glucosamine-6-phosphate [4] was found to be 0.000141 ± 3.3e-05 s⁻¹. Moreover, in the data set with glucosamine-6-phosphate [5], the “self-cleavage kobs at 2500 uM GlcN6P” value was 0.000228 ± 4.2e-05 s⁻¹.

For G41A U46G, the kcat with glucosamine-6-phosphate [1] came to 0.00092 ± 0.00015 s⁻¹. The KM with glucosamine-6-phosphate [2] came out at 2030 ± 530 µM. Moreover, the “self-cleavage kobs at 160 uM GlcN6P” value with glucosamine-6-phosphate [3] was 6.59e-05 ± 1.8e-05 s⁻¹. Also, the “self-cleavage kobs at 640 uM GlcN6P” value with glucosamine-6-phosphate [4] worked out at 0.000206 ± 4.4e-05 s⁻¹. Moreover, in the data set with glucosamine-6-phosphate [5], the “self-cleavage kobs at 2500 uM GlcN6P” value came out at 0.000537 ± 0.00011 s⁻¹. Besides, the “self-cleavage kobs at 10000 uM GlcN6P” value in the data set with glucosamine-6-phosphate [6] turned out to be 0.000747 ± 0.00018 s⁻¹.

In the case of A36C C71G, the kcat with glucosamine-6-phosphate [1] was determined as 1.27e-05 ± 2.5e-06 s⁻¹.

Turning to A14U U65G, the kcat with glucosamine-6-phosphate [1] amounted to 0.00172 ± 0.00014 s⁻¹. The Michaelis-Menten constant (KM) with glucosamine-6-phosphate [2] amounted to 2120 ± 250 µM. For the same variant, the “self-cleavage kobs at 40 uM GlcN6P” value with glucosamine-6-phosphate [7] turned out to be 2.77e-05 ± 8e-06 s⁻¹. Further, the “self-cleavage kobs at 160 uM GlcN6P” value with glucosamine-6-phosphate [3] is 0.000118 ± 1.7e-05 s⁻¹. For the same variant, the “self-cleavage kobs at 640 uM GlcN6P” value with glucosamine-6-phosphate [4] worked out at 0.000431 ± 4.8e-05 s⁻¹. Moreover, in the data set with glucosamine-6-phosphate [5], the “self-cleavage kobs at 2500 uM GlcN6P” value stood at 0.000875 ± 0.00012 s⁻¹. In addition, the “self-cleavage kobs at 10000 uM GlcN6P” value in the data set with glucosamine-6-phosphate [6] came out at 0.00144 ± 0.00018 s⁻¹.

Consider A52U U69C, for which, in the data set with glucosamine-6-phosphate [1], the kcat was 0.000239 ± 2.7e-05 s⁻¹. Besides, the KM with glucosamine-6-phosphate [2] amounted to 1990 ± 540 µM. Moreover, the “self-cleavage kobs at 640 uM GlcN6P” value with glucosamine-6-phosphate [4] was 5.38e-05 ± 2.2e-05 s⁻¹. Further, the “self-cleavage kobs at 2500 uM GlcN6P” value with glucosamine-6-phosphate [5] came out at 0.000152 ± 3.9e-05 s⁻¹. Also, the “self-cleavage kobs at 10000 uM GlcN6P” value with glucosamine-6-phosphate [6] turned out to be 0.000191 ± 4.2e-05 s⁻¹.

A15G C50U: the kcat with glucosamine-6-phosphate [1] is 9.75e-05 ± 1.3e-05 s⁻¹. Moreover, in the data set with glucosamine-6-phosphate [2], the KM turned out to be 2370 ± 1000 µM. Besides, the “self-cleavage kobs at 2500 uM GlcN6P” value in the data set with glucosamine-6-phosphate [5] is 4.52e-05 ± 1.3e-05 s⁻¹. The “self-cleavage kobs at 10000 uM GlcN6P” value with glucosamine-6-phosphate [6] worked out at 8.01e-05 ± 1.2e-05 s⁻¹.

A48C C67A: the kcat with glucosamine-6-phosphate [1] is 0.000168 ± 1e-05 s⁻¹. In addition, the Michaelis-Menten constant (KM) with glucosamine-6-phosphate [2] was found to be 1800 ± 310 µM. Also, the “self-cleavage kobs at 640 uM GlcN6P” value in the data set with glucosamine-6-phosphate [4] was found to be 4.27e-05 ± 9.9e-06 s⁻¹. The “self-cleavage kobs at 2500 uM GlcN6P” value with glucosamine-6-phosphate [5] turned out to be 0.000104 ± 1.4e-05 s⁻¹. In the data set with glucosamine-6-phosphate [6], the “self-cleavage kobs at 10000 uM GlcN6P” value amounted to 0.00014 ± 1.4e-05 s⁻¹.

On to C11A A15C, for which the kcat with glucosamine-6-phosphate [1] amounted to 7.9e-05 ± 2.8e-05 s⁻¹. In addition, in the data set with glucosamine-6-phosphate [5], the “self-cleavage kobs at 2500 uM GlcN6P” value stood at 8.45e-05 ± 1.9e-05 s⁻¹. Besides, the “self-cleavage kobs at 10000 uM GlcN6P” value with glucosamine-6-phosphate [6] was 5.67e-05 ± 2.2e-05 s⁻¹.

Regarding A15U U45A, in the data set with glucosamine-6-phosphate [1], the kcat was 0.0179 ± 0.0054 s⁻¹. The KM with glucosamine-6-phosphate [2] was 3230 ± 1300 µM. Further, the “self-cleavage kobs at 40 uM GlcN6P” value in the data set with glucosamine-6-phosphate [7] was 0.000298 ± 4.7e-05 s⁻¹. The “self-cleavage kobs at 160 uM GlcN6P” value with glucosamine-6-phosphate [3] is 0.000772 ± 0.00017 s⁻¹. Also, the “self-cleavage kobs at 640 uM GlcN6P” value in the data set with glucosamine-6-phosphate [4] was determined as 0.00219 ± 0.00059 s⁻¹. Besides, in the data set with glucosamine-6-phosphate [5], the “self-cleavage kobs at 2500 uM GlcN6P” value came to 0.00648 ± 0.0023 s⁻¹. For the same variant, in the data set with glucosamine-6-phosphate [6], the “self-cleavage kobs at 10000 uM GlcN6P” value stood at 0.0145 ± 0.0023 s⁻¹.

Consider G13C C70A, for which the kcat in the data set with glucosamine-6-phosphate [1] worked out at 1.11e-05 ± 3.3e-06 s⁻¹.

Consider A15U U46A, for which the kcat with glucosamine-6-phosphate [1] is 0.000378 ± 2.9e-05 s⁻¹. Moreover, the KM in the data set with glucosamine-6-phosphate [2] amounted to 2050 ± 300 µM. For the same variant, the “self-cleavage kobs at 160 uM GlcN6P” value with glucosamine-6-phosphate [3] is 3.16e-05 ± 1.1e-05 s⁻¹. For the same variant, the “self-cleavage kobs at 640 uM GlcN6P” value with glucosamine-6-phosphate [4] is 8.53e-05 ± 9.5e-06 s⁻¹. For the same variant, the “self-cleavage kobs at 2500 uM GlcN6P” value with glucosamine-6-phosphate [5] came out at 0.000225 ± 2.3e-05 s⁻¹. For the same variant, in the data set with glucosamine-6-phosphate [6], the “self-cleavage kobs at 10000 uM GlcN6P” value was found to be 0.000303 ± 3.2e-05 s⁻¹.

Regarding U57G C61G C70U, the kcat in the data set with glucosamine-6-phosphate [1] amounted to 2.66e-05 ± 9e-06 s⁻¹. Further, the “self-cleavage kobs at 640 uM GlcN6P” value with glucosamine-6-phosphate [4] came out at 3.58e-05 ± 1.7e-05 s⁻¹.

These data come from the supplement of paper PMC7125110.
